Tests used:
Format in all cases: cell-based, human
SupT1 = experiment: Proliferation (3H-thymidine) of SupT1; details: SupT1; 3H-thymidine uptake, 72 h
Text: (§1) CCRF-CEM, CEM/C1, CEM/C2, CEM-C7, Jurkat, Loucy, Molt-4, HSB-2, SUP-T1, Hut 78, HH, Hut 102, MO, and H9 T-leukemia and T-lymphoma cell lines were purchased from the American Type Culture Collection (Manassas, Va., USA). All of the cell lines were initially expanded and cryopreserved within one month of receipt. Cells were typically used for 6 months at which time a fresh vial of cryopreserved cells was used. Total T cells from healthy donors were isolated via negative selection followed by positive selection using a CD3+ selection kit (Invitrogen, Carlsbad, Calif.). T cells were isolated from patients with T-ALL bone marrow or peripheral blood samples containing more than 70% leukemia cells using a CD2+ isolation kit (STEMCELL Technologies, Vancouver, Canada). All tissues were collected under institutional IRB-approved protocols and all participants gave written informed assent/consent. For in vitro experiments, T-ALL cells were cultured in AIM-V medium supplemented with 20% human AB serum in the presence of recombinant human stem cell factor (50 ng/mL; Amgen, Thousand Oaks, Calif.), insulin (20 nM; Sigma-Aldrich, St Louis, Mo., USA) and IL-7 (50 ng/mL; R&D Systems, Minneapolis, Minn., USA). In other experiments, protein lysate was collected using the Full Moon Biosystems (Sunnyvale, Calif., USA) buffer prior to protein examination by western blot or protein array.
(§2) Cells were cultured in a 96-well plate (Corning Costar, Corning, N.Y., USA) with various concentrations of TLR ligands 1-9, starting at 10 μg/ml, in a final volume of 200 ul. TLR ligands were diluted 2-fold. Cell lines (25-40×10^3/well) were cultured for 54 hours, whereas fresh patient-derived T-ALL cells (200×10^3/well) were cultured for 30 hours prior to adding [^3H]-thymidine for 18 hours. After this time point, cells were harvested with a Packard Filter-Mate-96 cell harvester (Perkin Elmer, Waltham, Mass., USA) and counted on Packard Top Count-NXT (Perkin Elmer, Waltham, Mass., USA). Results were expressed as average counts per minute (cpm). In some experiments CCRF-CEM cells were pre-treated with TLR1-TLR2 ligand (Pam3CysK4; 2.5 ug/ml) for 48 hrs, washed, and then cultured in the presence of varying concentrations of FBS. Forty-eight hours later, proliferation (±SD) was determined by ^3H-thymidine incorporation. Alternatively, apoptosis was measured by flow cytometry after staining cells with Annexin-V (BD Pharmingen, San Diego, Calif., USA) and propidium iodide (Sigma). Cell number was counted under microscopy by staining cells with trypan blue.
(§3) The following TLR ligands were purchased from Invivogen (San Diego, Calif., USA): tripalmitoyl-S-(bis(palmitoyloxy)propyl)-Cys-Ser-(Lys)3-Lys (TLR1-2); Poly I:C (TLR3); ultrapure S. Minnesota Lipopolysaccharide (TLR4); S. typhimurium flagellin (TLR5); FSL-1 (TLR2/6); Imiquimod (TLR7); ssRNA40/Lyovec (TLR8); CpG-ODN 2006 (TLR9).

Loucy = experiment: Proliferation (3H-thymidine) of Loucy; details: 3H-thymidine uptake, 72 h
Text: as §1
as §2, with “blue. […]” for “blue.”

MO = experiment: Proliferation (3H-thymidine) of MO; details: 3H-thymidine uptake, 72 h
Text: as §1, with “In other experiments, protein lysate was collected using the Full Moon Biosystems (Sunnyvale, Calif., USA) buffer prior to protein examination by western blot or protein array.” left out
(§4) Cells were cultured in a 96-well plate (Corning Costar, Corning, N.Y., USA) with various concentrations of TLR ligands 1-9, starting at 10 μg/ml, in a final volume of 200 ul. […] After this time point, cells were harvested with a Packard Filter-Mate-96 cell harvester (Perkin Elmer, Waltham, Mass., USA) and counted on Packard Top Count-NXT (Perkin Elmer, Waltham, Mass., USA). Results were expressed as average counts per minute (cpm). […] Forty-eight hours later, proliferation (±SD) was determined by ^3H-thymidine incorporation. Alternatively, apoptosis was measured by flow cytometry after staining cells with Annexin-V (BD Pharmingen, San Diego, Calif., USA) and propidium iodide (Sigma). Cell number was counted under microscopy by staining cells with trypan blue. […]

Molt-4 = experiment: Proliferation (3H-thymidine) of Molt-4; details: 3H-thymidine uptake, 72 h
Text: as §1, with “In other experiments, protein lysate was collected using the Full Moon Biosystems (Sunnyvale, Calif., USA) buffer prior to protein examination by western blot or protein array.” left out
as §4

G361 melanoma cells = experiment: Western blot of IRAK phosphorylation in G361; details: 48 hours
Experimental: (§5) FIG. 22. Effects of TLR stimulation and cytokines on IRAK phosphorylation in melanoma cells. (A) A375 cells were cultured in the presence of anti-IL-18, anti-CXCL-1, (R&D Systems), anti-IL-1 (BioLegend), or mouse IgG (Sigma-Aldrich) all at 10 μg/ml. Forty-eight hours later the levels of the indicated proteins were determined by western blot. (B) A375 cells, which express p-IRAK-1 and p-IRAK-4, and G361 melanoma cells, which express very low levels of p-IRAK-1 (and express TLR5) were cultured in the presence of TLR1-TLR2 agonist (Pam3CysK4; 2.5 μg/ml) or TLR5 (flagellin; 100 ng/ml; InVivogen). Forty-eight hours later total protein was collected and the levels of the indicated proteins were examined by western blot.
(§6) Total cell extracts were prepared from melanoma cells. […] Melanoma tissue arrays were purchased from US Biomax, Inc (Rockville, Md.). For immunohistochemical staining samples were stained with mouse monoclonal anti-human phosphor-IRAK.-4 antibody (Abnova; dilution, 3.5 μg/ml) or normal mouse serum. Tissue histology sections (5-μm-thick) were deparaffinized, hydrated, heated in boiling 10 mmol/L sodium citrate (pH 6.0), for antigen retrieval, for 30 min and washed in Tris buffer. Peroxide blocking was done with 3% […] in methanol at room temperature for 15 min, followed by 10% fetal bovine serum in TBS-t for 30 min at room temperature. Primary antibody incubation was done overnight at 4° C. Secondary antibody incubation with horse anti-mouse (1:200; Vector Laboratories, Burlingame, Calif.) was done for 1 hr, followed by application of diaminobenzidine chromogen for 5 min. The slides were then counterstained with hematoxylin and topped with a coverslip. IHC specimens were analyzed using “quick score” system in which the intensity of the immunohistochemical reaction was scored by multiplying the intensity 1 (weak), 2 (moderate), and 3 (strong) and the proportion of cells staining positively 0 (<10%), 1 (10-25%), 2 (26-50%), 3 (51-75%) or 4 (>75%).

HH = experiment: Proliferation (3H-thymidine) of HH; details: 3H-thymidine uptake, 72 h
Text: as §1, with “In other experiments, protein lysate was collected using the Full Moon Biosystems (Sunnyvale, Calif., USA) buffer prior to protein examination by western blot or protein array.” left out
as §4

[1] = system: Primary T-cells Activated; experiment: Proliferation (3H-thymidine) of activated primary T-cells; details: Primary T-cells, Activated
Text: as §1, §2, §3

CCRF-CEM = experiment: Proliferation (3H-thymidine) of CCRF-CEM; details: 3H-thymidine uptake, 72 h
Text: as §1, §2, §3

Hut 102 = experiment: Proliferation (3H-thymidine) of Hut 102; details: 3H-thymidine uptake, 72 h
Text: as §1, with “In other experiments, protein lysate was collected using the Full Moon Biosystems (Sunnyvale, Calif., USA) buffer prior to protein examination by western blot or protein array.” left out
as §4

CEM-C1 = experiment: Proliferation (3H-thymidine) of CEM-C1; details: 3H-thymidine uptake, 72 h
Text: as §1
as §2, with “blue. […]” for “blue.”

CEM-C7 = experiment: Proliferation (3H-thymidine) of CEM-C7
Text: as §1, §2, §3

CEM-C2 = experiment: Proliferation (3H-thymidine) of CEM-C2; details: 3H-thymidine uptake, 72 h
Text: as §1
as §2, with “blue. […]” for “blue.”

HSB-2 = experiment: Proliferation (3H-thymidine) of HSB-2
Text: as §1, §2, §3

H9 = experiment: Proliferation (3H-thymidine) of H9; details: H9
Text: as §1, §2, §3

Jurkat = experiment: Proliferation (3H-thymidine) of Jurkat; details: 3H-thymidine uptake, 72 h
Text: as §1
as §2, with “blue. […]” for “blue.”

Hut-78 = experiment: Proliferation (3H-thymidine) of Hut-78; details: 3H-thymidine uptake, 72 h
Text: as §1, with “In other experiments, protein lysate was collected using the Full Moon Biosystems (Sunnyvale, Calif., USA) buffer prior to protein examination by western blot or protein array.” left out
as §4

Primary T-cells Non-Act = experiment: Proliferation (3H-thymidine) of non-activated primary T-cells; details: 3H-thymidine uptake, 72 h
Text: as §1, with “In other experiments, protein lysate was collected using the Full Moon Biosystems (Sunnyvale, Calif., USA) buffer prior to protein examination by western blot or protein array.” left out
as §4

A375 cells = experiment: Western blot of IRAK phosphorylation in A375; details: 48 hours
Experimental: as §5, §6

[2] = Pam3CysK4 2.5 μg/ml or flagellin 100 ng/ml, FIG. 22B

B1: Flagellin: S. typhimurium flagellin, TLR5 ligand (Invivogen) (protein, UniProt P06179 2-495, looked up)
Flagellin: AQVINTNSLSLLTQNNLNKSQSALGTAIERLSSGLRINSAKDDAAGQAIANRFTANIKGLTQASRNANDGISIAQTTEGALNEINNNLQRVRELAVQSANSTNSQSDLDSIQAEITQRLNEIDRVSGQTQFNGVKVLAQDNTLTIQVGANDGETIDIDLKQINSQTLGLDTLNVQQKYKVSDTAATVTGYADTTIALDNSTFKASATGLGGTDQKIDGDLKFDDTTGKYYAKVTVTGGTGKDGYYEVSVDKTNGEVTLAGGATSPLTGGLPATATEDVKNVQVANADLTEAKAALTAAGVTGTASVVKMSYTDNNGKTIDGGLAVKVGDDYYSATQNKDGSISINTTKYTADDGTSKTALNKLGGADGKTEVVSIGGKTYAASKAEGHNFKAQPDLAEAAATTTENPLQKIDAALAQVDTLRSDLGAVQNRFNSAITNLGNTVNNLTSARSRIEDSDYATEVSNMSRAQILQQAGTSVLAQANQVPQNVLSLLR
Question: With B1 as the molecule, how does the “Proliferative effects of TLR ligands” value (SupT1) read?
Answer: Its value is “∘”.

Question: What about the “Proliferative effects of TLR ligands” value (Loucy) of the same molecule?
Answer: The value was “∘”.

Question: What about the “Proliferative effects of TLR ligands” value (MO) of the same molecule?
Answer: The value was “∘”.

Question: What about the “Proliferative effects of TLR ligands” value (Molt-4) of the same molecule?
Answer: Its value is “∘”.

Question: And the “p-IRAK-1 or p-IRAK-4 expression levels” value (G361 melanoma cells; [2])?
Answer: The value was “neither TLR-1-TLR2 agonist (Pam3CysK4), nor TLR5 (Flagellin) stimulation increased or induced”.

Question: And the “total and p-IRAK-4 levels” value (G361 melanoma cells; flagellin 100 ng/ml)?
Answer: The value was “reduced”.

Question: And the “Proliferative effects of TLR ligands” value (HH)?
Answer: The value was “∘”.

Question: And the “Proliferative effects of TLR ligands” value ([1]; 3H-thymidine uptake, 72 h)?
Answer: Its value is “+ (enhanced proliferation by 25% or greater)”.

Question: What about the “TLR ligand concentration in parentheses below the symbol” value (“TLR ligand concentration” below) ([1]; no unit in table (μg/ml)) of the same molecule?
Answer: Its value is “(10)”.

Question: What about the “Proliferative effects of TLR ligands” value (CCRF-CEM) of the same molecule?
Answer: Its value is “∘”.

Question: What about the “Proliferative effects of TLR ligands” value (Hut 102) of the same molecule?
Answer: Its value is “∘”.

Question: And the “Proliferative effects of TLR ligands” value (CEM-C1)?
Answer: Its value is “∘”.

Question: And the “Proliferative effects of TLR ligands” value (CEM-C7; 3H-thymidine uptake, 72 h)?
Answer: The value was “− (reduced proliferation)”.

Question: What about the “TLR ligand concentration” value (CEM-C7; no unit in table (μg/ml)) of the same molecule?
Answer: Its value is “(2.5)”.

Question: What about the “Proliferative effects of TLR ligands” value (CEM-C2) of the same molecule?
Answer: Its value is “∘”.

Question: What about the “Proliferative effects of TLR ligands” value (HSB-2; 3H-thymidine uptake, 72 h) of the same molecule?
Answer: Its value is “− (reduced proliferation)”.

Question: What about the “TLR ligand concentration” value (HSB-2; no unit in table (μg/ml)) of the same molecule?
Answer: Its value is “(10)”.

Question: And the “Proliferative effects of TLR ligands” value (H9; 3H-thymidine uptake, 72 h)?
Answer: The value was “− (reduced proliferation)”.

Question: What about the “TLR ligand concentration” value (H9; no unit in table (μg/ml)) of the same molecule?
Answer: The value was “(10)”.

Question: And the “Proliferative effects of TLR ligands” value (Jurkat)?
Answer: Its value is “∘”.

Question: And the “Proliferative effects of TLR ligands” value (Hut-78)?
Answer: Its value is “∘”.

Question: What about the “Proliferative effects of TLR ligands” value (Primary T-cells Non-Act) of the same molecule?
Answer: Its value is “∘”.

Question: And the “p-IRAK-1 or p-IRAK-4 expression levels” value (A375 cells; [2])?
Answer: The value was “neither TLR-1-TLR2 agonist (Pam3CysK4), nor TLR5 (Flagellin) stimulation increased or induced”.

Question: And the “total and p-IRAK-4 levels” value (A375 cells; flagellin 100 ng/ml)?
Answer: The value was “reduced”.

Reference: US9464326B2, “Total and phosphorylated IL-1 receptor-associated kinase-1 and IL-1 receptor-associated kinase-4 as a biomarker for cancer progression and chemotherapy resistance” (University of Maryland, Baltimore, priority 2012, dated 2016)
